# Measured values taken from the nanobody polyreactivity screen of Harvey et al. (2022).
# Assay: yeast display, Sf9 membrane polyspecificity reagent, FACS + sequencing; frameworks hold sequencing errors
# Summary of the method: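 Galactose induction of a Saccharomyces cerevisiae BJ5465 synthetic nanobody display library ran 36–48 hours. The cells were then stained for 1 hour at 4 °C with 10% biotinylated, detergent-solubilized Sf9 membrane reagent, pulled down on streptavidin microbeads and FACS-sorted into low and high (top ~1%) gates on expression and reagent-binding fluorescence. Labels for polyreactivity follow the gate of origin.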
row,Sequence,polyreactivity (PSR sort gate)
1,QVQLVESGGGLVQAGGSLRLSCAASGSTFHKNAMGWYRQAPGKERELVAGITKRGGSTYYADSVKGRFTISRDNAKNTVYLQMNSLKPEDTAVYYCNADFPVGRTEYDYWGQGTQVTVSS,low polyreactivity
2,QVQLVESGGGLVQAGGSLRLSCAASGSTFHPYAMGWYRQAPGKERELVAAITWRVGSTYYADSVKGRFTISRDNAKNTVYLLINCLKPEDTAVYYCAVSYLSTLGRSRYDYWGQGTQVSVSS,low polyreactivity
3,QVQLVESGGGLVQAGGSLRLSCAASGSTFHRNTLGWYRQAPGKERELVAGISLRGVRTYYADSVKGRFTISRDNAKNSVYLQMNSLKPEDTAVYYCAALYYYGYDYWGQGTQVTVSS,high polyreactivity
4,QVQLVESGGGLVQAGGSLRLSCAASGSTFHRNTMGWYRQAPAKERALVAGISLRGVSTYYADSVKGRFTISRDNAKNTVYLQMNSLKPEDTAVYYCAAGGPYTRNFKLGYWGQGTQVTVSS,high polyreactivity
5,QVQLVESGGGLVQAGGSLRLSCAASGSTFHRYAMGWYRQAPGKERELVAAISVRTGSTYYADSVKGRFTISRDNAKNTVYLQMNSLKPEDTAVYSCAVGKQINGKIYRYDYWGQGTQVTVSS,high polyreactivity
6,QVQLVESGGGLVQAGGSLRLSCAASGSTFHRYAMGWYRQAPGKERELVARINGSGGSTYYADSVKGRFTISRDNSKNTVYLQMNSLIPEDTAVYYCAADGLYYTYGYDYWGQGTQVTVSS,low polyreactivity
7,QVQLVESGGGLVQAGGSLRLSCAASGSTFHRYVMGWYRQAPGKERELVAVINSTGGSTYYADSVKGRFTISRDNAKNTVYLQMNSLKPEDTAVYYCARVTRRGPGYTTLYSRYDYWGQGTQVTVSS,low polyreactivity
8,QVQLVESGGGLVQAGGSLRLSCAASGSTFHSYVMGWYRPAPGKERELVAAITSRGGSTNYADSFKGRFTISRDNAKNTVYLQLNSLKPEDTAVYYCAADVYLGWSYFRYDYWGQGTQVTVSS,low polyreactivity
9,QVQLVESGGGLVQAGGSLRLSCAASGSTFHSYVMGWYRQAPGKERELVAAITSRGGSTNYADSVKGRFTISRDNAKNTVYLQMNSLKPEDTAVYYCAADGYWGWSYFRYDYWGQGTQVTVSS,low polyreactivity
10,QVQLVESGGGLVQAGGSLRLSCAASGSTFHTYAMGWYRQAPGKERELVAGITGSGDSTFYADSVKGRFTISRDNAKNTVYLQMNSLKPEDTAVYYCAVESLRDVFEYDYWGQGTQVTVSS,low polyreactivity
11,QVQLVESGGGLVQAGGSLRLSCAASGSTFHTYTMGWYRQAPGKERELVAGISRSGGSTYYADSVKGRFTISRDNAKNTVYLQMNSLKPEDTAVYYCNALSSKTDTYDYWGQGTQVTVSS,high polyreactivity
12,QVQLVESGGGLVQAGGSLRLSCAASGSTFHWYDMGWYRPAPGKERELVAGINSSGDGTYYADSVKGRFTISRDNAKNTVYLQMNSLKPEDTAVYYCAAEYYTYWGYEDDYWGQGTQVTVSS,low polyreactivity
13,QVQLVESGGGLVQAGGSLRLSCAASGSTFHYYAMGWYRQAPGKERELVATITRRGDSTYYADSVKGRFTISRDKAKNTVYLQMNSLKPEDTAVYYCATRYWRSGYDWPYGYWGQGTQVTVSS,high polyreactivity
14,QVQLVESGGGLVQAGGSLRLSCAASGSTFIANDMGWYRQAPGKERELVAAISWSGGSTYADSVKGRFTISRDNAKNTVYLQMNSLKPEDTAVYYCAADWQVVWDYNYWGQGTQVTVSS,low polyreactivity
15,QVQLVESGGGLVQAGGSLRLSCAASGSTFIAYAMGWYRQAPGKERELVAAITKSGGRTYYADSVKGRFTISRDNAKNTVYLQMNSLKPEDTAVYYCAKLVPVYSHPYAYDYWGQGTQVTVSS,high polyreactivity
16,QVQLVESGGGLVQAGGSLRLSCAASGSTFIDYAMGWYRQAPGKDRELVAAITWSGSSTYYADSVKGRFTISRDNAKNTVDLQMNSLKPEDTAVYYCAARYWYQSYHTYGYYSWGQGTQVTVSS,low polyreactivity
17,QVQLVESGGGLVQAGGSLRLSCAASGSTFIDYAMGWYRQAPGKERELVAAIDQGGGRTYYADSVKGRFTISRDNAKNTVYLQMNSLKPEDTAVYYCAATSRVVGEGGYEYWGQGTQVTVSS,low polyreactivity
18,QVQLVESGGGLVQAGGSLRLSCAASGSTFIFNTMGWYRQAPGKERELVATITGSGGSTYYADSVKGRFTISRDNAKNTVYLQMNSLKPEDTAVYYCAAVGDQNEYDYWGQGTQVTVSS,low polyreactivity
19,QVQLVESGGGLVQAGGSLRLSCAASGSTFIFNTMGWYRQAPGNERELVAAIRLSGGSTYYADSVKGRFTLSRDNAKYTVYLQMNSLKPEDTAVYYCARRLATRGHTYDYWGQGTQVTVSS,low polyreactivity
20,QVQLVESGGGLVQAGGSLRLSCAASGSTFIFYAMGWYRQAPGKERELVAAISWSGGSTYYADSVKGRFTISRDNAKYTVYLQMNSLKPEDTAVYYCITLHRYSSERYDYWGQGTQVTVSS,high polyreactivity
21,QVQLVESGGGLVQAGGSLRLSCAASGSTFIFYAMGWYRQAPGKERELVAAITSSGGSTYYADSVKGRFTISRDNAKNTVYLQMNSLKPEDTAVYYCNTLAYTYGSKFGYWGQGTQVTVSS,low polyreactivity
22,QVQLVESGGGLVQAGGSLRLSCAASGSTFIFYAMGWYRQAPGKERELVASITSRAASTYYADSVKGRFTISRDIAKNTVYLQMNSLKPEDTAVYYCAATFSYTLFWWSSFLLYDYWGQGTQVTVSS,low polyreactivity

row,Sequence,polyreactivity (PSR sort gate)
1,QVQLVESGGGLVQAGGSLRLSCAASGSTFIGNAMGWYRQAPGKEREFVATISQNGGRTYYADSVKGRFTISRDNAKNTVYLQMNSLKPEDTAVYYCAADDWRWGYDYWGQGTQVTVSS,high polyreactivity
2,QVQLVESGGGLVQAGGSLRLSCAASGSTFIGYAMGWYRQAPGKERELVAAISRRGSRTYYADSVKGRFTISRDNAKNTVYLQINSLKPEDTAVYYCNRDYREYGYAYSGRYYWGQGTQVTVSS,high polyreactivity
3,QVQLVESGGGLVQAGGSLRLSCAASGSTFIGYAMGWYRQAPGKERELVAAISRSDGSTYYADSVKGRFTISRDHAKNTVYLQMNSLKPEDTAVYYCNADYYRWYDYWGQGTQVTLSS,low polyreactivity
4,QVQLVESGGGLVQAGGSLRLSCAASGSTFIHNAMGWYRQAPGNERELVAAITSGGSTYYADSVKGRFTISRDNAMNTVYLQMNSLKPEDTAVYYCNRGSWRYSTMEYWGQGTLVTVSS,high polyreactivity
5,QVQLVESGGGLVQAGGSLRLSCAASGSTFIIYSMGWYRQAPGKERELVATISTRGTSTYYADSVKGRFTISRDNAKNTVYLQMNSLKPEDTAVYYCNARRRGYGNRYTFDYWGQGTQVTVSS,high polyreactivity
6,QVQLVESGGGLVQAGGSLRLSCAASGSTFIKNAMGWYRQAPGKERELVAAINNSGSRTYYADSVKGRFTISRDNAKNTVYLQMNSLKPEDTAVYYCAAGRTYGMGYWGQGTQVTVSS,high polyreactivity
7,QVQLVESGGGLVQAGGSLRLSCAASGSTFILYAMGWYRQAPGKERELVAAISKRGGSTYYADSVKGRFTISRDNATHTVYFQLKSLKPEDTAVYYLNKKNPQDLTENGYWGQGTEVTVSS,high polyreactivity
8,QVQLVESGGGLVQAGGSLRLSCAASGSTFINYAMGWYRQAPGKERELVAAYADSVKGRFTISRDNAKNTVYLQMNSLKPEDTAVYYCAARYVYPHQWTPYIRPYDYWGQGTQVTVSS,low polyreactivity
9,QVQLVESGGGLVQAGGSLRLSCAASGSTFIPYAMGWYRQAPGKERELVAGINGGDGSTYYADSVKGRFTISRDNAKNTVYLQMNSLKPEDTAVYYCAKKNPLVFTSGMDYWGQGTQVTVSS,low polyreactivity
10,QVQLVESGGGLVQAGGSLRLSCAASGSTFISYAMGWYRQAPGKERELVAAISSSGGSTYYADSVKGRFTISRDNAKYTVYLQMNSLKPEDTAVYYCAAESVYYRSWRYYYWGQGTQVTVSS,high polyreactivity
11,QVQLVESGGGLVQAGGSLRLSCAASGSTFITYAMGRYRQAPGKERELVAAIRWSGGGTYYADSVKGRFTISRDNAKNTVYLQMNSLKPEDTAVYYCAADHFNYTTGRDYWGQGTQVTVSS,low polyreactivity
12,QVQLVESGGGLVQAGGSLRLSCAASGSTFITYAMGWYRQAPGKERELVAAIRVIGGRTYYADSVKGRFTISRDNAKNTVYLQMNSLKPEDTAVYYCAVTGRGWGYDYWGQGTQVTVSS,high polyreactivity
13,QVQLVESGGGLVQAGGSLRLSCAASGSTFITYGMGWYRQAPGKERELVARITLSGGSTYYADSVKGRFTISRDNAKNTVYLQINSLKPEDTAVYYCATDFGWQYYVLDGYYWGQGTQVTVSS,low polyreactivity
14,QVQLVESGGGLVQAGGSLRLSCAASGSTFIVNAMGWYRQAPGKERELVAAITEDGDTTYYADSVKGRFTISRDHAKKTVYLQMNSLKPEDTAVYYCAARTYRGLADDYWGQGTQVTVSS,high polyreactivity
15,QVQLVESGGGLVQAGGSLRLSCAASGSTFIYNAMGWYRQAPGKERELVAAITDGSTKYADSVKGRFTISRDNAKNTVYLQMNSLKPEDTAVYYCNAYVWRWRYDSWGQGTQVTVSS,low polyreactivity
16,QVQLVESGGGLVQAGGSLRLSCAASGSTFKANAMGWYRQAPGKERELVASIRFSAGSTYYADSVKGRFTISRDNAKNTVYLQMNSLKPEDTAVYYCAAGRHVLKRRYDYWGQGTQVTVSS,low polyreactivity
17,QVQLVESGGGLVQAGGSLRLSCAASGSTFKFNAMGWYRQAPGKERELVAAISRGGRTNYADSVKGRFTISRDNAKNTVYLQMNSLKPEDTAFYYCAADYSTLYKDDYWGQGTQVTVSS,low polyreactivity
18,QVQLVESGGGLVQAGGSLRLSCAASGSTFKGNAMGWYRQAPGKERELVAAINRSGTSTYYADSVKGRFTISRDNAKNTVYLQMNSLKPEDTAVYYCAKKYFGHRFDYWGQGTQVTVSS,high polyreactivity
19,QVQLVESGGGLVQAGGSLRLSCAASGSTFKIYAMGWYRPAPGKERELVAAITRGASTYADSVKGRFTISRDNAKNTVYLQMNSLKPEDTAVYYCAAYRRPSRSGDKPIGFDYWGQGTQVTVSS,high polyreactivity
20,QVQLVESGGGLVQAGGSLRLSCAASGSTFKIYAMGWYRQAPGKERELVARITSGGSTNYADSVKGRFTISRDNAKNTVYLQMNSLKPEDTAVYYCAVPWYTRESGAYDYWGQGTQVTVSS,high polyreactivity
21,QVQLVESGGGLVQAGGSLRLSCAASGSTFKKYAMGWYRQAPGKERELVAAITWTGGSTYYADSVKGRFTISRDNAKNTVYFQMNSLKPEDTAVYYCAAYKTYAVKYYWGQGTQVTVSS,high polyreactivity
